Test results taken from patent US20110118447A1.
Where a chain is given by its changes, count along the chain named. Names may count otherwise.

B1: C5A (XPA23) VL D28P (antibody, V domains shown)
VH: EVQLLESGGGLVQPGGSLRLSCAASGFTFSKYFMFWVRQAPGKGLEWVSVISPSGGMTRYADSVKGRFTISRDNSKNTLYLQMNSLRAEDTAVYYCARVGYGGNSDYWGQGTLVTVSS
VL: DIQMTQSPSSVSASVGDRLTIICRASQPINRWLAWYQQTPGNAPKLLIHSATSLQSGVPSRFSGSGSGTDFTLTINSLQPEDFATYYCQQADSFPLTFGGGTKVEIK
B2: C5A (XPA23) VL T52P (antibody, V domains shown)
VH: B1 VH
VL: B1 VL with P28D, T52P
B3: C5A (XPA23) VL A51V (antibody, V domains shown)
VH: B1 VH
VL: B1 VL with P28D, A51V
B4: C5A (XPA23) VL N30A (antibody, V domains shown)
VH: B1 VH
VL: B1 VL with P28D, N30A
B5: C5A (XPA23) VL N30G (antibody, V domains shown)
VH: B1 VH
VL: B1 VL with P28D, N30G
B6: C5A (XPA23) VL N30L (antibody, V domains shown)
VH: B1 VH
VL: B1 VL with P28D, N30L
B7: C5A (XPA23) VL A51P (antibody, V domains shown)
VH: B1 VH
VL: B1 VL with P28D, A51P
B8: C5A (XPA23) VL N30W (antibody, V domains shown)
VH: B1 VH
VL: B1 VL with P28D, N30W
B9: C5A (XPA23) VL S50V (antibody, V domains shown)
VH: B1 VH
VL: B1 VL with P28D, S50V
B10: C5A (XPA23) VL H49W (antibody, V domains shown)
VH: B1 VH
VL: B1 VL with P28D, H49W
B11: C5A (XPA23) VL R31L (antibody, V domains shown)
VH: B1 VH
VL: B1 VL with P28D, R31L
B12: C5A (XPA23) VL R31G (antibody, V domains shown)
VH: B1 VH
VL: B1 VL with P28D, R31G
B13: C5A (XPA23) VL R31A (antibody, V domains shown)
VH: B1 VH
VL: B1 VL with P28D, R31A
B14: C5A (XPA23) VL H49P (antibody, V domains shown)
VH: B1 VH
VL: B1 VL with P28D, H49P
B15: C5A (XPA23) VL T52A (antibody, V domains shown)
VH: B1 VH
VL: B1 VL with P28D, T52A
B16: C5A (XPA23) VL R31V (antibody, V domains shown)
VH: B1 VH
VL: B1 VL with P28D, R31V
B17: C5A (XPA23) VL H49L (antibody, V domains shown)
VH: B1 VH
VL: B1 VL with P28D, H49L
B18: C5A (XPA23) VL N30P (antibody, V domains shown)
VH: B1 VH
VL: B1 VL with P28D, N30P
B19: C5A (XPA23) VL R31I (antibody, V domains shown)
VH: B1 VH
VL: B1 VL with P28D, R31I
B20: C5A (XPA23) VL T52I (antibody, V domains shown)
VH: B1 VH
VL: B1 VL with P28D, T52I
B21: C5A (XPA23) VL H49A (antibody, V domains shown)
VH: B1 VH
VL: B1 VL with P28D, H49A
B22: C5A (XPA23) VL S53L (antibody, V domains shown)
VH: B1 VH
VL: B1 VL with P28D, S53L
B23: C5A (XPA23) VL S53I (antibody, V domains shown)
VH: B1 VH
VL: B1 VL with P28D, S53I
B24: C5A (XPA23) VL S50G (antibody, V domains shown)
VH: B1 VH
VL: B1 VL with P28D, S50G
B25: C5A (XPA23) VL N30I (antibody, V domains shown)
VH: B1 VH
VL: B1 VL with P28D, N30I
B26: C5A (XPA23) VL S53W (antibody, V domains shown)
VH: B1 VH
VL: B1 VL with P28D, S53W
B27: C5A (XPA23) VL A51L (antibody, V domains shown)
VH: B1 VH
VL: B1 VL with P28D, A51L
B28: C5A (XPA23) VL R31W (antibody, V domains shown)
VH: B1 VH
VL: B1 VL with P28D, R31W
B29: C5A (XPA23) VL S53A (antibody, V domains shown)
VH: B1 VH
VL: B1 VL with P28D, S53A
B30: C5A (XPA23) VL S53F (antibody, V domains shown)
VH: B1 VH
VL: B1 VL with P28D, S53F
B31: C5A (XPA23) VL S50L (antibody, V domains shown)
VH: B1 VH
VL: B1 VL with P28D, S50L
B32: C5A (XPA23) VL H49F (antibody, V domains shown)
VH: B1 VH
VL: B1 VL with P28D, H49F
B33: C5A (XPA23) VL S53G (antibody, V domains shown)
VH: B1 VH
VL: B1 VL with P28D, S53G
B34: C5A (XPA23) VL S50A (antibody, V domains shown)
VH: B1 VH
VL: B1 VL with P28D, S50A
B35: C5A (XPA23) VL T52F (antibody, V domains shown)
VH: B1 VH
VL: B1 VL with P28D, T52F
B36: C5A (XPA23) VL A51G (antibody, V domains shown)
VH: B1 VH
VL: B1 VL with P28D, A51G
B37: C5A (XPA23) VL T52V (antibody, V domains shown)
VH: B1 VH
VL: B1 VL with P28D, T52V
B38: C5A (XPA23) VL N30F (antibody, V domains shown)
VH: B1 VH
VL: B1 VL with P28D, N30F
B39: C5A (XPA23) VL N30V (antibody, V domains shown)
VH: B1 VH
VL: B1 VL with P28D, N30V
B40: C5A (XPA23) VL S50I (antibody, V domains shown)
VH: B1 VH
VL: B1 VL with P28D, S50I
B41: C5A (XPA23) VL S53V (antibody, V domains shown)
VH: B1 VH
VL: B1 VL with P28D, S53V
B42: C5A (XPA23) VL T52L (antibody, V domains shown)
VH: B1 VH
VL: B1 VL with P28D, T52L
B43: C5A (XPA23) VL A51W (antibody, V domains shown)
VH: B1 VH
VL: B1 VL with P28D, A51W
B44: C5A (XPA23) VL R31F (antibody, V domains shown)
VH: B1 VH
VL: B1 VL with P28D, R31F
B45: C5A (XPA23) VL T52W (antibody, V domains shown)
VH: B1 VH
VL: B1 VL with P28D, T52W
B46: C5A (XPA23) VL S50W (antibody, V domains shown)
VH: B1 VH
VL: B1 VL with P28D, S50W

Each binder was assayed against binding partner of C5A (XPA23) (assay: Biacore K-off).

| Binder | fold difference in affinity vs original |
| --- | --- |
| B1 | 1.17 fold |
| B2 | 1.08 fold |
| B3 | 0.31 fold |
| B4 | 0.61 fold |
| B5 | 0.71 fold |
| B6 | 0.68 fold |
| B7 | 0.13 fold |
| B8 | 1.06 fold |
| B9 | 0.21 fold |
| B10 | 0.21 fold |
| B11 | 0.51 fold |
| B12 | 0.92 fold |
| B13 | 8.48 fold |
| B14 | 0.86 fold |
| B15 | 0.66 fold |
| B16 | 0.44 fold |
| B17 | 0.07 fold |
| B18 | 0.69 fold |
| B19 | 0.68 fold |
| B20 | 0.8 fold |
| B21 | 0.23 fold |
| B22 | 0.99 fold |
| B23 | 1.42 fold |

| Binder | fold difference in affinity vs original |
| --- | --- |
| B24 | 0.14 fold |
| B25 | 0.65 fold |
| B26 | 1.11 fold |
| B27 | 0.16 fold |
| B28 | 0.43 fold |
| B29 | 1.07 fold |
| B30 | 1.24 fold |
| B31 | 0.49 fold |
| B32 | 0.5 fold |
| B33 | 1.03 fold |
| B34 | 0.13 fold |
| B35 | 1.05 fold |
| B36 | 3.84 fold |
| B37 | 0.82 fold |
| B38 | 1.59 fold |
| B39 | 0.89 fold |
| B40 | 0.25 fold |
| B41 | 1.42 fold |
| B42 | 0.78 fold |
| B43 | 0.24 fold |
| B44 | 0.92 fold |
| B45 | 0.87 fold |
| B46 | 0.02 fold |
